One block for each binder: values may come before it. Where no end group is shown, it is not given here.
Columns and labels:
[1] = target: the molecule itself; assay: ESI-MS, declustering voltage 10 V
Procedure: A Waters Micromass ZMD quadrupole mass spectrometer was used for all experiments. The mass spectrometer was calibrated with cesium iodide. The temperature at the ion spray interface was kept at 40° C. A voltage of 2.0 kV at the tip of the inlet capillary needle was used to generate the electrospray. The cone voltage was set at 20 V and the extractor voltage was set at 10 V, resulting in a declustering voltage (ΔCS) of 10 V. Samples of protein were prepared in 10 mM ammonium acetate, pH 8.0, at concentrations of approximately 250 μM and were delivered at a flow rate of 50 μL/min into the ion source.
A 6× histidine tagged version of GB1 alone (lacking the Ymbs38 extension) was subjected to ESI-MS under the same conditions. […] Charged ions due to monomeric GB1 are shown labeled with the bolded numbers. The molecular mass derived from the +6 and +7 charge states is 8258 Da. (Calculated molecular mass of GB1 with the 6× histidine tag=8387 Da.).

[2] = target: T1, untagged Zn(II)GB1-Ymbs38 (6x histidine tag removed by thrombin) (streptococcal; E. hirae, UniProt P06654 228-282; Q47839 108-145, Zn(II) bound by the four cysteines of the Cys-x-Cys-xxxx-Cys-x-Cys site); assay: HIS-Select nickel affinity resin binding assay, SDS-PAGE
T1 construct: also called untagged GB1-Ymbs38; untagged wild-type Zn(II)GB1-Ymbs38; not shown: vector residues left after thrombin cleavage at Leu-Val-Pro-Arg-Gly-Ser
Text: Sigma® HlS-Select™ Nickel Affinity resin was used to assess dimerization between histidine-tagged and untagged proteins. Tagged and untagged versions of CopY were isolated as described above. The untagged version of GB1-Ymbs38 was isolated from the purified tagged protein by treatment with the Sigma® THROMBIN CleanCleave™ Kit. A thrombin cleavage site between the histidine tag and the start of the GB1-Ymbs38 protein allowed for easy removal of the tag. Dimerization reactions of tagged and untagged protein were performed in 50 mM Tris, pH 7.8, 300 mM NaCl. Approximately equilmolar amounts of each protein were mixed and incubated at 37° C. for 45 minutes to promote subunit interchange. The protein mixture was applied to 100 μL of drained HIS-Select resin that had been equilibrated in 50 mM Tris, pH 7.8, 300 mM NaCl in a Centricep spin column (Princeton Separations, Inc.) at room temperature. After 1 minute of constant agitation, the resin-protein mixture was centrifuged at 500×g for 30 seconds and the flow through was collected in a clean microfuge tube. The resin then was washed twice with 350 μL of 50 mM Tris, pH 7.8, 300 mM NaCl, and once with 50 mM Tris, pH 7.8, 300 mM NaCl, 20 mM imidazole. Each wash step was followed by centrifugation at 500×g for 30 seconds to remove excess liquid. […] Eluants were analyzed on 15% Tris-tricine SDS-PAGE stained with Coomassie brilliant blue R-250.

[3] = target: the molecule itself; assay: large zone size exclusion chromatography (Shodex KW 803), one trial dated 6/9/06; non-linear least squares fit of the fraction of monomer to a monomer-dimer model; cell H5 'Equilibrium constant'; sum of squares 0.025076973; no unit in the cell, loaded concentrations are in M and the text gives Ka in M^-1
Procedure: A 5 mL aliquot of Zn(II)CopY was loaded onto a Shodex KW 803 column (total column volume is 15 mL) equilibrated in 50 mM Tris, pH 7.8, 150 mM NaCl, 0.05% β-mercaptoethanol. […] The measure of the apparent molecular weight of the protein at each concentration was calculated by correlating the elution volume of the leading edge with elution volumes of known molecular weight standards.
The plot of the change in apparent molecular weight versus the concentration of protein loaded onto the chromatography column provided an understanding of the process that occurred during the large zone chromatography experiment. The acquired data could be further manipulated in order to calculate the equilibrium dissociation constant for the GB1-Ymbs38 dimer. […] The data points are the recorded experimental values of σw, at each loading concentration, and the solid line illustrates the best fit of the data to a monomer-dimer stoichiometric model. […] To verify that the data was fit to the appropriate stoichiometric model, a residual plot, which plots the difference between the observed fₘ and the calculated fₘ versus log [loaded protein], was prepared. […] The Kd value was calculated from the best fit of the data to a monomer-dimer stoichiometric model, represented on the plot as a solid line.

[4] = target: the molecule itself; assay: large zone size exclusion chromatography, fit to monomer-dimer model, 4 °C
Procedure: The data points are the recorded experimental values of σw, at each loading concentration, and the solid line illustrates the best fit of the data to a monomer-dimer stoichiometric model. Non-linear least squares analysis was used to obtain the best fit according to the procedure. To verify that the data was fit to the appropriate stoichiometric model, a residual plot, which plots the difference between the observed fₘ and the calculated fₘ versus log [loaded protein], was prepared. The elution volume of each sample was converted to the weight average partition coefficient, which was plotted as a function of GB1-Ymbs38 concentration loaded onto the chromatography column. The Kd value was calculated from the best fit of the data to a monomer-dimer stoichiometric model, represented on the plot as a solid line. The plot shown corresponds to one of the three large zone chromatography trials performed on the apo-GB1-Ymbs38 protein variant.
The fitting of the data yielded the equilibrium association constants for each protein variant, which were subsequently converted to dissociation constants, Kd. Residual points were obtained by subtracting the fraction of monomer calculated by the best fit from the actual experimental value. Residuals were ploted against the log (loaded protein). […] Equilibrium association constants were used to calculate the Gibbs energy of assembly (ΔG°) through the equation: ΔG°=−RTlnKₐ₋Equilibrium association and dissociation constants, and the Gibbs free energy changes are shown in Table 6 for each GB1-Ymbs38 variant. A decrease in affinity between GB1-Ymbs38 monomers occurred upon mutation of the leucine and isoleucine residues or upon the removal of Zn(II), with the Zn(II) removal resulting in a larger decrease. The combination of Zn(II) removal and mutation of the aliphatic amino acids eliminated the ability of GB1-Ymbs38 monomer to self-associate.

[5] = target: the molecule itself; assay: large zone size exclusion chromatography, one of three trials; best fit of the weight average partition coefficient against log [loaded protein] to a monomer-dimer model; self-association
Procedure: The measure of the apparent molecular weight of the protein at each concentration was calculated by correlating the elution volume of the leading edge with elution volumes of known molecular weight standards.
The plot of the change in apparent molecular weight versus the concentration of protein loaded onto the chromatography column provided an understanding of the process that occurred during the large zone chromatography experiment. The acquired data could be further manipulated in order to calculate the equilibrium dissociation constant for the GB1-Ymbs38 dimer. The elution volume, Vₑ, was converted to the weight average partition coefficient, σw, which represented the fraction of solvent volume within the gel matrix that was accessible to the protein. […] The data points are the recorded experimental values of σw, at each loading concentration, and the solid line illustrates the best fit of the data to a monomer-dimer stoichiometric model. Non-linear least squares analysis was used to obtain the best fit according to the procedure. To verify that the data was fit to the appropriate stoichiometric model, a residual plot, which plots the difference between the observed fₘ and the calculated fₘ versus log [loaded protein], was prepared. […] The Kd value was calculated from the best fit of the data to a monomer-dimer stoichiometric model, represented on the plot as a solid line. […]

binding result [2]: no binding
B1: 6x histidine tagged GB1 (lacking the Ymbs38 extension) (other, streptococcal, UniProt P06654 228-282, looked up)
chain: TYKLILNGKTLKGETTTEAVDAATAEKVFKQYANDNGVDGEWTYDDATKTFTVTE
modifications: also: 6x histidine tag, place not given here
notes: Calculated mass with tag 8387 Da (8.4 kDa); Control without the CopY part; also called 6xhis tagged GB1; not shown: 6x histidine tag
binding result [1]: no binding (tested: approximately 250 µM)

B2: 6x histidine tagged Zn(II)GB1-Ymbs38 fusion protein (other, streptococcal;E. hirae, UniProt P06654 228-282, looked up)
chain: TYKLILNGKTLKGETTTEAVDAATAEKVFKQYANDNGVDGEWTYDDATKTFTVTEATLTQEDIQQIMKQLNKKEPVETIECNCIPGQCECKKQ
modifications: Zn(II) bound by the four cysteines of the Cys-x-Cys-xxxx-Cys-x-Cys site
notes: Calculated monomer mass 12.8 kDa (tagged); also called 6hGB1-Ymbs38; native Zn(II)GB1-Ymbs38; not shown: N-terminal 6xHis tag and thrombin site (Leu-Val-Pro-Arg-Gly-Ser) from the pET-14b vector
Ka [3]: 40200 M⁻¹
Ka [4]: 37000 M⁻¹
Kd [4]: 28 µM

B3: 6x histidine tagged apo (cysteine modified) GB1-Ymbs38 (other, streptococcal;E. hirae, UniProt P06654 228-282, looked up)
chain: TYKLILNGKTLKGETTTEAVDAATAEKVFKQYANDNGVDGEWTYDDATKTFTVTEATLTQEDIQQIMKQLNKKEPVETIECNCIPGQCECKKQ
modifications: Zn(II) removed (EDTA or acidification); the four cysteines of the metal binding motif carboxyamidomethylated with iodoacetamide
notes: Calculated mass of the carboxyamidomethylated protein 12,992 Da; also called apo-GB1-Ymbs38; Apo-GB1-Ymbs38; not shown: N-terminal 6xHis tag and thrombin site (Leu-Val-Pro-Arg-Gly-Ser) from the pET-14b vector
Kd [5]: 54 µM
Ka [4]: 10000 M⁻¹
Kd [4]: 51 µM
